Assay: soluble fraction after stress (log2 fold change); higher = more stays soluble; pooled small domains, quantitative proteomics
Conditions: stress: 75 degC
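Note: 20 min heating vs room temperature control held 20 min.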

Sequence | soluble fraction (log2)
HMAATNVKVPDLKGWDYNNAVGKYGDKLSFVKKSIYSDSVSKGIIIYNARVGETVAQGTTIEVTVSLGPKG | -1.46
HMQLDLTSTLDHMYKQMRNDHPRALLMAVEKEMVLRALKETDGNQLRASDILGISRSTLRKRIEEFDINS | -1.24
HMELTKAELEVMQILWKLKKAFVGDILDRMVEPKPAYNTVSTVVRLLEKKGVVGHESFGKSHRYYPL | -3.66
HMVVVPDVKGLKIEEAAEFFKNNNLHYNVIDSVFSKDVEPGAIVELSPLAGSKVKEGRIVFITVNALTS | -1.12
HMDMQMPIMNGLEFLERINLTLDDNFSIIVLTGKIEDKSIEKSFELGINAYLRKPFNIYALLGIVRQN | -0.135
HMDSINIDEETAKLGPNAPQIIDGIKKWGQGLVAKGVWSDEDFDEFKVFAATSSGINALNKIRKYY | 0.188
HMRDYKTHLQEVLQSKGEVNIWYKLIDEKGPDHNKKFVMQVGIDSKILGFGEGKSKKEAEQVAARKALDNI | -0.384
HMQIDRLFDIVYTLLRKKSATAAELAERFGVSKRTILRDIETLSVAGIPILTSPGKGGGVSISSSF | -0.892
HMPDAIPLETIIKNVNVLAGFLINSKTFTEDDIVMAYNNIMKIKGDHTDEKTLTNDVYTLLTEMN | -0.714
HMATAEETTPLWARNRLSHAIFGPGSVTGEDERSFEVAFDNGDTLNFSKKSAHLYFTAMSSR | -0.169
HMSFTSQSVLIEIVRGTTQLTPLAAAVGANKREVVLAVHRLKQRGLVVSAGLGQYAATEAGRAFLTAGREV | -3.43
HMVMNKQEFLKILRDTLQSQLSSRETENHVEYYRTYIEEQMREGKTEIEILDVLGDPRLIARTILET | -0.193
HMNEDTEDIKNINSLVNKLTENNFDIIRDSIVKLINKEHLIPYIIETIIEKSILHHRYVHLYVSILKE | 0.219
HMEVLEGFIEDIKFKSEESGYTVAKLNNRNKSIVIVGTMPFISEGQHVKLTGEWKIHQKFGAQFNVKELEE | -0.923
HMETLKINTHLGTLNLKKRGKKGTWQINIYFKNIEGDNHYRQSTGTNQLELAKAKAMNMITTEYSNRLAGI | -1.67
HMEMTDKEEELMRIFWNHGPMFVREIVELYPEPRPHFNTLSTFVRNLEQKGFVSHEAVGGSFRYYAV | -1.45
HMQDNDLKNQIENVLRTYPDNVFTVEKIADVLRSHGSAAFKLIVQELASLERDKVAVVTEDGKFQLNPD | 0.261
HMNYLDVNIPVTSAVWMGKQLPEMGTLIYLTPDKDVEGMLFIKQATKDKPDGEYIEAKVLGYKEGRVLFDF | -0.964
HMALRFMAYGRINGTNVHFRTGASASTASLGRYSRGTEFGVYDKIGGWYRVRLLSTGQEGYVYSRYLTLTG | -2.53
HMQGEKDDLWREVLDNPDAWWDNRERKNAPGGNPRYPDFKHKDSQTPLWIESRDTPQWAIDALL | 0.259
HMSIHPRDKADLGTALSKWKKGALDDKQLELEVARVFMRTYGKKLEGQALNKAVAAWVAALTQSKK | -0.171
HMPTFAEKLHEVRKARDFTQDQLAKEMNVSRQTISHWENGRAVPDIDTIKHLSQVLDYNFLV | 0.0869
HMQTSETVYTTDKVNVRAGADTSSDKLGSVEKGTSLTRTGTDGDWSIIDYNGTTGYIKSEYLSATAPE | 0.566
HMGTVSSGSSSTDTPFSLGEIVRHKVFGEGVVLSIEGQGDASRIQINFNTAGTKWLVTAYADLEK | -1.09
HMIENGILELKGKTGVAQTVLRPSGKVLIDDEIYDAVALTGYIEKADKVLVTKVEATQLYVEK | -0.0378
HMDNQSIVRINDGDGAWRQRLGEHFGHLPRDRKRGEIVLQVDAADWRWLQTQGYAPRFDAALSAQLQTTL | -0.479
HMNIVVSSIDSNSFEIVNKETGEQAVISYDKETKKGFVLINGVKKEFFQDGNKVYYDGYVIAE | 0.0406
HMQKKYLAVKEYLLEQINSGAYQPDEPIPPEREMAAMLGVNRMTLRRAVEELMYEGLLIRKKGSGTFLTK | -2.03

Sequence | soluble fraction (log2)
HMGGEEKALLFGDVDIREAGEITQRLEQAEIPYELRGDGSSIFVPRSRVMEARMMISADGLL | -0.0934
HMSVTSIEGRVVYDENANKIGIAKQVGIDSTQSMVLVLTKNDGTEGSISWNNIKKIGEIILLGN | -0.908
HMGVGVKSTEVDYQRTSSGSDIPTDDAAWTKTIPAVKVNTFLWTRTKINYTDGTSAIFYSVGY | -3.05
HMVAGHLQEKKGYFYMVLTYRDHEGKRKSKWLPTGLTIKGNKKRAQDLLQDARKNFVPDIPT | -2.37
HMDPTYYFNLYPNPSKDEVSLFTNFTGKINIEILDLAGKSILSDNPISTISLVSLKEGLYLVKVKS | -0.178
HMATVNIGNLTFTHKGDYASGTTYAKNDVVYYSTNGNAYIAKQATQGNAPTSTAHWDVFAAGSGG | 0.245
HMRIATVTPIEEDQASDRVVAVYNDIKSTKQIDFIPNFWKVIAVNPDLLEQVWGQLKTLMHPEEVG | -0.996
HMQTTKTGTITASSLYVRSGASTSHKVLGTVSKGKTVQIKDTQDGWHKISYNGDHGWVSGKYVSTT | 0.226
HMPGLDTTILSDILSLKKELPSRSAAKILIMLILAKRIEEGSLNLRTINRILNQYGYTRESLL | 0.144
HMELLSGTVEKVLTSGVLVKLPGGAIGFIPNSEMGTPRGTNHGKMFPAGTPLQVMVVEVNQDRGRITLSR | -1.69
HMRWGDPLTVKVPSFIGQTKDDIAKQHYPFRIEWHGEGAKIGSQLPEVDSVIKQDGTIHLYLV | -0.0635
HMRDVVVVPDLSGLTQMEALSKLDAESLNIGEINYGVSEMPEGVIFKQDPVYGTELMKGDTVDIFISGR | -0.423
HMDLQAAWLQTVRHLLAHTEDVGDRFAEEARRIHYGEEPHRGIRGQATPEERLALREEGIETMSIPV | -0.919
HMKTLNKRQQDIINLAREEGFVTVEHLSEYFKVTQQTIRRDLGYLSENLYLARTYGGAFFQS | -0.854
HMVELVKVPALQGETVDEAIADIKDAGLEPGQVRYVESDLPKDTVTYQSVDAGEQVKAGTVINLQASKGP | 0.765
HMEYQSLVLDFLEQGDFNAEKLKDYQRAFAKQNGMQTLPSKSQILQAYFQLVEEKKINKNSDFELLLRKR | -0.32
HMNNFTQSALDTIDGIGKRRKKLLLNHFGSVKLIENASIEDIKKIDGISDLVANKIYNFFNKN | -1.04
HMLTRQRKQLLEYLSKHTDEQMTARQIADALTAESISISAVYRNLSALEEEGILKRSIRENTREVYYQYIA | -1.57
HMTINQIDPASGRKVGYWIITGEMKPKEGFSPDNKIEEGIYVNSRKSGKWIKYWPNGNVRSEIIYKNGR | -0.677
HMRRRKPLVSYEYGTRVYAPSEGEPRYRVVATDADGQRVFAKFSSEEAARHRAREIEGRLATS | -0.26
HMQPQIDFEIDVEVRASSLRIVAAPNSDVLVATVGRGEHVVQLTYPKDGWVMIRTADDRVGFVPESLLL | -2
HMKKASLSTVEKKLMKQNYSNDTMENRLARVESYMFGTVFSSDDTQTRIDRISSAYNAQKSS | -0.0731
HMNEDYSSMVGKTGFALTILRPAGKIMIEEEVFDAVAINGYISKGQEVEVVRYENAQLYVKVK | -1.04
HMKRNLVSVLDHIVGIGPKRRQSLRTHFGSLEKIKEASVEELAAAPGMNRTSAEAVRHFFDAQQELRGK | 0.727
HMQNVKIKAEVKGEVISPGVYELDEESRIQDLIDASGGFSDKAYYDNINLSMKLKDEMVLVVYDKDKI | -0.271
HMAQLPADLSKVKSSQISDQQLTQIAQQAKNSGQSEQAVLQELKQRGLPDTEIQALGARISGLMQ | 0.211
HMEVNMEEKMEFVHSYIKTHKTFLFRQLLSESKSRTQVIVTFLVILELIKGGKISVTQENRTDDILINSL | 0.0528

Source: the domain aggregation screens of Martell et al. (2025)
